The results in this text go back to patent US11529424B2, “Synthetic bioconjugates” (Symic Holdings, Inc., priority 2017, dated 2022).

In one data set the target is collagen. In words: Collagen-binding plate assay. The conditions noted are these: for collagen binding EC50: compared to the EC50 for Compound 4. As to the method: The following method is used to assess the binding affinity of bioconjugates disclosed herein for collagen.
Collagen-binding of bioconjugate variants is compared by a plate-assay, in which collagen is coated on 96-well plates. Collagen is coated on high-bind plates at 50 μg/mL in 0.02 N acetic acid for 1 hour at room temperature. Unbound collagen is rinsed with 1×PBS pH 7.4. Plates are then blocked in 1% milk in 1×PBS solution for 1 hour at room temperature.
Bioconjugate variants containing biotinlyated peptides are dissolved to a final concentration of 1 mg/mL in 1% milk in 1×PBS pH 7.4. From this solution, a 10× serial dilution is performed. Molecules are then incubated on the blocked collagen-coated plates and incubated for 15 minutes at room temperature. Plates are then rinsed 3 times with 1×PBS in 1% BSA and 0.2% Tween20.
Bound molecules are detected by streptavidin-HRP, which was diluted 1:500 in 1× PBS with 1% BSA and 0.2% Tween20 and incubated 200 μL/well for 20 minutes at room temperature. Streptavidin solution is rinsed from the plates 3 times with 1×PBS with 0.2% Tween20. TMB Substrate solution is then added to each well 100 μL/well for 15 minutes at room temperature, and the color evolution was stopped with 100 μL sulfuric acid solution (0.16 M). Absorbance in the well is then measured at 450 nm and binding affinity plotted in a dose-response by absorbance vs. concentration.
This method was used to compare collagen binding affinity of various collagen-binding bioconjugates by comparing EC50 values. More specifically, the EC50 values for each bioconjugate was compared to the EC50 for Compound 4.

For another data set, the target named is Collagen Type I (Homo sapiens, UniProt P02452+P08123). In words: Collagen Binding Assay 2. The conditions noted are these: with GSGSGSRR spacer versus binding domain without spacer and spacer alone, FIG. 18 and 19. As to the method:
GQLYKSILYGSGSGSRR (SEQ ID NO: 6) (Compound 10) was evaluated for binding affinity against the GQLYKSILYGSG (SEQ ID NO: 59) (Peptide X) binding domain without spacer and against the spacer sequence alone, GSGSGSRR (SEQ ID NO: 4) (Spacer A), results shown in FIG. 18. […] WREPSFSALS (SEQ ID NO: 8), also known as vWF-2× due to its binding to the von Willebran binding site on collagen, was evaluated for binding affinity with and without the GSGSGSRR (SEQ ID NO: 4) spacer.
50 μg/ml of Collagen Type I was adsorbed onto high bind plates by incubating overnight. Plates were then washed with PBS and blocked using 1% Non-fat milk in PBS for 1 hour. Molecule dilutions were prepared in 1% BSA in PBS and then incubated for 1 hour at 25° C. Plates were then washed with PBS containing 0.05% Tween 20. A 1:500 dilution of Streptavidin-HRP in 1% BSA PBS was prepared and added to the plates for 20 minutes. Plates were then washed with PBS and TMB solution was added for 10 minutes for color development. The color development was stopped using 0.16 M sulfuric acid and absorbance at […] was measured using a plate reader. Compound 10 was used as a reference standard for all EC50 results.

Data set [1] relates to mouse model of Non-Alcoholic Steatohepatitis (NASH). Description: Non-Alcoholic Steatohepatitis (NASH) mouse model, liver collagen by Sirius Red. The data set is classed as in vivo, C57BL/6 mice. The note with it: week 5 to week 9; Compound 10 3×/week intravenous, Telmisartan daily oral; compared to the vehicle treated group. As to the method:
The ability of the compounds to affect liver fibrosis was tested in a mouse model of Non-Alcoholic Steatohepatitis (NASH). C57BL/6 mice received a single subcutaneous injection of 200 μg streptozotocin after birth. Beginning at 4 weeks of age, animals were fed a high fat diet. […] A separate group of animals received daily oral administration of Telmisartan during the same period Animals were sacrificed at 9 weeks of age and the livers were collected for histological and biochemical analysis. Histological analysis of the livers for collagen content was performed using Sirius Red staining.

The subject of data set [2] is platelet binding to Type I fibrillar collagen. In words: Platelet aggregation: platelet binding to collagen under flow. The data set is classed as cell-based. The conditions noted are these: 2 mg/mL on collagen-coated slides, human whole blood, sheer rate 1000 s−1, 10 minutes; compared to Compound 1. As to the method:
Type I fibrillar collagen was adsorbed to Ibidi μ-slides by overnight incubation at 2-8° C. The Ibidi μ-slides were rinsed with Phosphate Buffer Saline (PBS), and then blocked with 1% BSA in 1×PBS. Compound 10 (shown in FIG. 12B) and Compound 1 at 2 mg/mL (shown in 12A) were applied to Ibidi μ-slides and left to incubate. After 1 hour excess conjugates were rinsed away with 1×PBS. Freshly drawn human whole blood was prestained with Calcein AM (Live Fluorescent cell marker). Blood was pumped across the channels at a sheer rate of 1000 s−1 using a syringe pump for 10 minutes. As blood flows across the Ibidi μ-Slides, Fluorescent microscope was used to take images of aggregated fluorescently labeled platelets.

For data set [3], the target named is collagen (coated on 96-well plates, Example 2). In words: collagen-coated 96-well plate, biotin-labelled bioconjugate, streptavidin-HRP/TMB, absorbance at 450 nm (Example 2).
The target is the same in data set [4]. Description: collagen-coated 96-well plate, biotin-labelled bioconjugate, streptavidin-HRP/TMB, absorbance at 450 nm (Example 2), the concentration axis is in ug/ml.
Data set [5] has the same target. In words: collagen-coated 96-well plate, biotin-labelled bioconjugate, streptavidin-HRP/TMB, absorbance at 450 nm (Example 2). This is another data set of the same source.
The target is the same in data set [6]. In words: collagen-coated 96-well plate, biotin-labelled bioconjugate, streptavidin-HRP/TMB, absorbance at 450 nm (Example 2); Kd unit inferred, the concentration axis is in ug/ml.

Values joined by “and” are separate entries in the source; they are usually repeats but may differ in a detail not shown here. Equal values may be shown once. “Also recorded” adds a separate entry of the source. Read-outs that look alike come from different tables or passages of the source. Ends that are not written are not given here. * marks the point of attachment. NHNH2 = NN*

Sequence of Collagen Type I (P02452 162-1218 limits assumed): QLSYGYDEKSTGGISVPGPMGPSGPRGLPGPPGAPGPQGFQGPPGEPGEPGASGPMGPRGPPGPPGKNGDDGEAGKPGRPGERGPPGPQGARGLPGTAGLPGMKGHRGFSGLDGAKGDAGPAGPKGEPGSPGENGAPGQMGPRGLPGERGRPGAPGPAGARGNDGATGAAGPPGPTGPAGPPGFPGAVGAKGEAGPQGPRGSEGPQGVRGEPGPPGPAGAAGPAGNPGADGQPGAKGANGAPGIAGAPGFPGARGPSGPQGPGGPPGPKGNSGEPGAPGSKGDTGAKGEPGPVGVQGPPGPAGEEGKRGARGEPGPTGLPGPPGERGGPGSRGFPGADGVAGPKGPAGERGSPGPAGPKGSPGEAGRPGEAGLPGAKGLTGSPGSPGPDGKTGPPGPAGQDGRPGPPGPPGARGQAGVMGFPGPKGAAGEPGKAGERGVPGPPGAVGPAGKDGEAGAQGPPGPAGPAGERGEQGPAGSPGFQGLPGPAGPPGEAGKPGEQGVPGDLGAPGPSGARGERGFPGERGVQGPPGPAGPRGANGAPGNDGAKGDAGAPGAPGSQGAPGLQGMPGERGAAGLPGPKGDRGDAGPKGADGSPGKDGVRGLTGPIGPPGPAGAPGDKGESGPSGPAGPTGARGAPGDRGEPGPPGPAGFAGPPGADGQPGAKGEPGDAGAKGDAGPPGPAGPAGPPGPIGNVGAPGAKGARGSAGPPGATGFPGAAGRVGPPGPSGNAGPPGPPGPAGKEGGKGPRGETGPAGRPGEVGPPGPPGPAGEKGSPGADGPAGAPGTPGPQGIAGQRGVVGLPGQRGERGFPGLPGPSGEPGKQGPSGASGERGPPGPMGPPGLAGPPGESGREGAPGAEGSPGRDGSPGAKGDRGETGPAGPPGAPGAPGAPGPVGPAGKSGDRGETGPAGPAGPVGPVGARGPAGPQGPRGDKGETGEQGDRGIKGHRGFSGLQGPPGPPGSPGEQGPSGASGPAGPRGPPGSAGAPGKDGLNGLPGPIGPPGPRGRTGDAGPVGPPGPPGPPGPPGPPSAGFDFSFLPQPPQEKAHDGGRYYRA
Sequence of Collagen Type I (P08123 80-1119 limits assumed): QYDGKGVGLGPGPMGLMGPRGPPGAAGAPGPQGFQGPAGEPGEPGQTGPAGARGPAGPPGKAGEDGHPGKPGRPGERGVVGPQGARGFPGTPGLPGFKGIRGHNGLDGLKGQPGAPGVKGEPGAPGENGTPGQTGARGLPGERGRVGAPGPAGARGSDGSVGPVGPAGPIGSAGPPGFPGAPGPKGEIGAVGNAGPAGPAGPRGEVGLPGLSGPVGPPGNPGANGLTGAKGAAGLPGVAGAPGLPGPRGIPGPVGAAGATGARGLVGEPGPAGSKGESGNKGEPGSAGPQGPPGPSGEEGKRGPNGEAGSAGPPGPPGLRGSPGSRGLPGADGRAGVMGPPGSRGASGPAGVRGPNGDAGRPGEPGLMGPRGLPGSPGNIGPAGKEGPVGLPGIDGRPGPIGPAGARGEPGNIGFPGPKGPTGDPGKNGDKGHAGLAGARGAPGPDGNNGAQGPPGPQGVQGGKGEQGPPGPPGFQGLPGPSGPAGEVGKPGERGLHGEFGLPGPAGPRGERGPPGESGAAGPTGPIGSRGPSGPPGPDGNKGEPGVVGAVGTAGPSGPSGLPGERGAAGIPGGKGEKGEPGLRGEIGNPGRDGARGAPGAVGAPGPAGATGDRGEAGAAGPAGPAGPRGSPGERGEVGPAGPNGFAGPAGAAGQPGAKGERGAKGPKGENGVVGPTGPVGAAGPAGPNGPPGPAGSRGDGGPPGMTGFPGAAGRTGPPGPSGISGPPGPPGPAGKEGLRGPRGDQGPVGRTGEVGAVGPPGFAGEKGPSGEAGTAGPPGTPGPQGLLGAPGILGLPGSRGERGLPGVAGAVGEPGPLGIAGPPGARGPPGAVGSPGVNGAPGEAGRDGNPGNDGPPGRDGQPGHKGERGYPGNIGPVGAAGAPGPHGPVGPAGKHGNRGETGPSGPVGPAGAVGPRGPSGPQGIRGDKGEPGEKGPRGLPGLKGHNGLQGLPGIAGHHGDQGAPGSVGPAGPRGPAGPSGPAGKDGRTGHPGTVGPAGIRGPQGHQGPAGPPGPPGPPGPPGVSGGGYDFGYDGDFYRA

For “Compound 8: heparin bioconjugate with peptide GQLYKSILYGSRGSG-NHNH2 (Peptide 8), 1:8 glycan to peptide (also: heparin bioconjugate, 1:8 glycan to peptide, attachment site not given here)”, the “collagen binding EC50” value on collagen is given as “increases EC50; also recorded: slightly increases EC50”.
Take “WREPSFSALSGSGSGSRR [WREPSFSALSGSGSGSRR (SEQ ID NO: 110)]”: the collagen binding affinity entry in the data set with Collagen Type I was “increase in binding affinity”.
“Compound 4: heparin bioconjugate with peptide GQLYKSILYGSGRRGSG-NHNH2 (Peptide 4), 1:8 glycan to peptide (also: heparin bioconjugate, 1:8 glycan to peptide, attachment site not given here)”: the “collagen binding affinity (Kd)” value on collagen (compared to Compound 5 and Compound 3, FIG. 11) was “significant increase in collagen binding affinity (lower Kd)”.
As for `CCCc1nc2c(C)cc(-c3nc4ccccc4n3C)cc2n1Cc1ccc(-c2ccccc2C(=O)O)cc1` [Telmisartan, reference compound], the “levels of collagen in the liver (Sirius Red staining)” value in data set [1] was “decreased levels of collagen in the liver”.
In the case of “Compound 10: heparin bioconjugate with peptide GQLYKSILYGSGSGSRR-NHNH2 (Peptide 10), 1:8 glycan to peptide (also: heparin bioconjugate, 1:8 glycan to peptide, attachment site not given here)”, the “collagen binding EC50” value on collagen is “decreases the EC50”. Also, the “platelet binding to Type I fibrillar collagen” value in data set [2] was “inhibits platelet binding to Type I fibrillar collagen”. Besides, the “levels of collagen in the liver (Sirius Red staining)” value in data set [1] is “decreased levels of collagen in the liver”. Moreover, the collagen binding affinity entry with Collagen Type I is “greater binding affinity than the binding domain or the spacer in isolation”.

B1: Compound 8 (heparin bioconjugate of …-NHNH2) (peptide)
peptide: GQLYKSILYGSRGSG
modifications: not fully specified; C-terminal hydrazide (-NHNH-) bonded to a carboxyl of heparin; part of the peptides biotin-labelled
In turn, B1 gave an EC50 (read off the curve) in data set [3] of 60 µg/mL. Besides, the EC50 in data set [4] came to 47.1 µg/mL.

B2: Compound 10 (heparin bioconjugate of …-NHNH2) (peptide)
peptide: GQLYKSILYGSGSGSRR
modifications: not fully specified; C-terminal hydrazide (-NHNH-) bonded to a carboxyl of heparin; part of the peptides biotin-labelled
As for B2, the EC50 (read off the curve) in data set [5] turned out to be 20 µg/mL. Moreover, the EC50 in data set [4] is 15 µg/mL.

B3: Compound 13 (heparin bioconjugate of …-NHNH2) (peptide)
peptide: GQLYKSILYGSGRGSGSGSG
modifications: not fully specified (C-terminus); printed as GQLYKSILYGSGRGSGSGSG-; also: about 5 peptides per heparin (16 kDa), part of the peptides biotin-labelled
In data set [5], B3 had an EC50 (read off the curve) of 60 µg/mL.

B4: Compound 4 (heparin bioconjugate of …-NHNH2) (peptide)
peptide: GQLYKSILYGSGRRGSG
modifications: not fully specified; C-terminal hydrazide (-NHNH-) bonded to a carboxyl of heparin; part of the peptides biotin-labelled
Consider B4, for which the EC50 (read off the curve) in data set [5] stood at 50 µg/mL; in data set [3], 40 µg/mL. Also, the EC50 in data set [4] is 40.4 µg/mL and 32.1 µg/mL. The molecule also displayed a Kd in data set [6] of 42.5 µg/mL.

B5: Compound 7 (peptide)
peptide conjugated to heparin: GQLYKSILYGRSGRGSG
modifications: not fully specified; C-terminal hydrazide (-NHNH2) coupled to heparin; part of the peptides biotin-labelled
Molecule B5 displayed an EC50 in data set [4] of 44.2 µg/mL.

B6: Compound 9 (heparin bioconjugate of …-NHNH2) (peptide)
peptide: GQLYKSILYRRGSGSGS
modifications: not fully specified; C-terminal hydrazide (-NHNH-) bonded to a carboxyl of heparin; part of the peptides biotin-labelled
Regarding B6, in data set [5], the EC50 (read off the curve) is 50 µg/mL.

B7: Compound 12 (heparin bioconjugate of …-NHNH2) (peptide)
peptide: GQLYKSILYGSGRRRGSG
modifications: not fully specified; C-terminal hydrazide (-NHNH-) bonded to a carboxyl of heparin; part of the peptides biotin-labelled
B7 gave an EC50 (read off the curve) in data set [5] of 30 µg/mL.

B8: Compound 19 (heparin bioconjugate of (…)2-KRRGSG-NHNH2) (peptide)
peptide 1: RVMHGLHLGDDEGSG
peptide 2: KRRGSG
modifications: not fully specified (C-terminus); printed as (RVMHGLHLGDDEGSG)2-KRRGS; also: two copies of chain 1 bonded to the N-terminal branching lysine of chain 2, about 3 branched peptides per heparin (16 kDa)
Take B8: in data set [5], the EC50 (read off the curve) is 100 µg/mL.

B9: Compound 6 (peptide)
peptide conjugated to heparin: GQLYKSILYGSRGRGSG
modifications: not fully specified; C-terminal hydrazide (-NHNH2) coupled to heparin; part of the peptides biotin-labelled
In data set [4], B9 had an EC50 of 63.3 µg/mL.

B10: Compound 20 (peptide)
peptide conjugated to heparin: GSGGQLYKSILY
modifications: not fully specified (N-terminus); also: part of the peptides biotin-labelled, heparin backbone average 16 kDa
In the case of B10, the Kd in data set [6] turned out to be 35.1 µg/mL.

B11: Compound 11 (heparin bioconjugate of …-NHNH2) (peptide)
peptide: GQLYKSILYGSRRGS
modifications: not fully specified; C-terminal hydrazide (-NHNH-) bonded to a carboxyl of heparin; part of the peptides biotin-labelled
Regarding B11, the EC50 (read off the curve) in data set [3] was determined as 50 µg/mL.

B12: Compound 3 (heparin bioconjugate of …-NHNH2) (peptide)
peptide: GQLYKSILYGSG
modifications: not fully specified; C-terminal hydrazide (-NHNH-) bonded to a carboxyl of heparin; part of the peptides biotin-labelled
With B12, the Kd in data set [6] is 112 µg/mL.
With GQLYKSILYGSGKKGSG (also: conjugated to heparin) [Compound 14 (heparin bioconjugate of …)], in data set [5], the EC50 (read off the curve) was found to be 60 µg/mL.

B13: Compound 5 (heparin bioconjugate of …-NHNH2) (peptide)
peptide: GQLYKSILYGSGSGSGS
modifications: not fully specified; C-terminal hydrazide (-NHNH-) bonded to a carboxyl of heparin; part of the peptides biotin-labelled
Regarding B13, the Kd in data set [6] is 103 µg/mL and 113 µg/mL.
